According to patent publication US6699656B2, “Treatment and prevention of HIV infection by administration of derivatives of human chorionic gonadotropin” (University of Maryland Biotechnology Institute, priority 1996, dated 2004):

Key:
HIV-1 [1] = conditions: p24 antigen days 3 to 10; peptides 0.05 to 50 nmoles/ml, hCG 0.01 to 1,000 IU, native β-hCG 100 to 1,000 μg
Experimental: Sequences of the peptides are as follows:
HIV-1 infected cells were treated with the above preparations and the virus was measured.

[2] = system: hematopoietic progenitor cells; experiment: Hematopoietic progenitor colony assays (CFU-MIX, BFU-e, CFU-GM); format: cell-based; conditions: bone marrow and cord blood; hCG 200 IU/ml, peptides and subunits 100 μg/ml; 10 days
Excerpt: Hematopoietic progenitor cells (2×10^5 cell/ml) were isolated from normal bone marrow and cord blood and seeded in methylcellulose. […] Aggregates containing more than 50 cells after 10 days of culture were counted as colonies.

KS Y-1 or KS-SLK cells = experiment: KS clonogenic assay; format: cell-based, human; conditions: 2 KS cell lines; peptides 50 nmoles/ml, CR127 2 nmoles/ml; 10 days
Experimental: Briefly, the KS Y-1 cells were obtained from mononuclear cells isolated from pleural effusion of an AIDS patient with KS involving the lungs. After the depletion of T lymphocytes, monocytes/macrophages and fibroblasts by the cytotoxicity method, using monoclonal antibodies against CD2, CD3, CD4, CD8, CD10 and CD14 membrane antigens and baby rabbit complement, the cells were cultured in the absence of exogenous growth factors to select for transformed cells.

HIV-1 [3] = conditions: higher doses increased viral production; cited from earlier work
Kaposi's Sarcoma = conditions: literature; cited from earlier work

B1: partially purified native β-hCG (NβhCG): partially purified native β-hCG dissociated from hCG, Sigma (protein, UniProt P0DN86 21-165, looked up)
Choriogonadotropin subunit …: SKEPLRPRCRPINATLAVEKEGCPVCITVNTTICAGYCPTMTRVLQGVLPALPQVVCNYRDVRFESIRLPGCPRGVNPVVSYAVALSCQCALCRRSTTDCGGPKDHPLTCDDPRFQDSSSSKAPPPSLPSPSRLPGPSDTPILPQ
For B1, the “inhibition of HIV-1 infection/replication in acutely infected cells” value (HIV-1 [1]) was “active” and the “growth of hematopoietic progenitors (colonies)” value [2] was “directly promoted”.

B2: recombinant β-hCG: purified recombinant β-chain of hCG (protein, UniProt P0DN86 21-165, looked up)
Choriogonadotropin subunit …: B1 Choriogonadotropin subunit …
In the case of B2, the “anti-KS effect in clonogenic assays (number of colonies)” value (KS Y-1 or KS-SLK cells) is reported as “no anti-KS effect” and the “inhibition of HIV-1 infection/replication in acutely infected cells” value (HIV-1 [1]) is reported as “not to be active”.

B3: β-hCG: β-subunit of hCG as reported in the literature (protein, UniProt P0DN86 21-165, looked up)
Choriogonadotropin subunit …: B1 Choriogonadotropin subunit …
In the case of B3, the “doses reducing HIV production in monocytes” value (HIV-1 [3]) is given as no more than 10 µg/mL and the “efficacy in the treatment of Kaposi's Sarcoma” value (Kaposi's Sarcoma) is given as “efficacious”.
